The text below walks through data of IntAct's records for PubMed 15047893.

B1: Serine/threonine-protein kinase TOUSLED (Arabidopsis thaliana (Mouse-ear cress)), Q39238 (parent)
chain: MSDDMVLHFSSNSSNQSDHSLPDKIAKLEARLTGKTPSSAKPPQQQQQQQQQVSLWSSASAAVKVVTSTPPGLSETSISDSDDENTGDFLIRANTKKRQKVQESNNFSVVDHVEPQEAAYDGRKNDAESKTGLDVSKKKQGRGRASSTGRGRGSKTNNDVTKSQFVVAPVSAASQLDASDQKDFRPDGQLRNGECSLQDEDLKSLRAKIAMLEEELRKSRQDSSEYHHLVRNLENEVKDLKDQEQQGKQKTTKVISDLLISVSKTERQEARTKVRNESLRLGSVGVLRTGTIIAETWEDGQMLKDLNAQLRQLLETKEAIERQRKLLKKRQNGDKNDGTDTESGAQEEDIIPDEVYKSRLTSIKREEEAVLRERERYTLEKGLLMREMKRIRDEDGSRFNHFPVLNSRYALLNLLGKGGFSEVYKAYDLVDHRYVACKLHGLNAQWSEEKKQSYIRHANRECEIHKSLVHHHIVRLWDKFHIDMHTFCTVLEYCSGKDLDAVLKATSNLPEKEARIIIVQIVQGLVYLNKKSQKIIHYDLKPGNVLFDEFGVAKVTDFGLSKIVEDNVGSQGMELTSQGAGTYWYLPPECFELNKTPMISSKVDVWSVGVLFYQMLFGKRPFGHDQSQERILREDTIIKAKKVEFPVTRPAISNEAKDLIRRCLTYNQEDRPDVLTMAQDPYLAYSKK
partner: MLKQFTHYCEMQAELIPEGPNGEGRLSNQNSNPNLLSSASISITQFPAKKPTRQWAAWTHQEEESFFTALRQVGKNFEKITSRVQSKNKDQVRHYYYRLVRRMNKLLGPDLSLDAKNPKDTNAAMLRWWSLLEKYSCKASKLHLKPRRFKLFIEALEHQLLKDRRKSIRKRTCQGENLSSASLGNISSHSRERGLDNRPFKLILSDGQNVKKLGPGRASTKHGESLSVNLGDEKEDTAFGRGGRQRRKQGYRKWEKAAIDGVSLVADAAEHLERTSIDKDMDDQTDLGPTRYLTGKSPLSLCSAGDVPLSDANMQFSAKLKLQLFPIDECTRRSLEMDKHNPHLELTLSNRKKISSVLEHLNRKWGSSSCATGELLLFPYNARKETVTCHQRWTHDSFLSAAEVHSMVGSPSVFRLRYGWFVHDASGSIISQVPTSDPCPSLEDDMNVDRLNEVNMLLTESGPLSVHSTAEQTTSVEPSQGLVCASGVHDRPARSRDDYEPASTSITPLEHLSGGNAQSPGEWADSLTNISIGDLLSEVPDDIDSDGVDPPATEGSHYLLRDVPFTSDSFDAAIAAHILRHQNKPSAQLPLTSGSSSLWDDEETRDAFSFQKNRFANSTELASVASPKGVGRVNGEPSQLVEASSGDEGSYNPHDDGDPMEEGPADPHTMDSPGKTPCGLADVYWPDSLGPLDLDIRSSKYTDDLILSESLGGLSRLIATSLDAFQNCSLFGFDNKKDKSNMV
B2: Serine/threonine-protein kinase TOUSLED (Arabidopsis thaliana (Mouse-ear cress)), Q39238 (parent)
chain: B1 chain
partner: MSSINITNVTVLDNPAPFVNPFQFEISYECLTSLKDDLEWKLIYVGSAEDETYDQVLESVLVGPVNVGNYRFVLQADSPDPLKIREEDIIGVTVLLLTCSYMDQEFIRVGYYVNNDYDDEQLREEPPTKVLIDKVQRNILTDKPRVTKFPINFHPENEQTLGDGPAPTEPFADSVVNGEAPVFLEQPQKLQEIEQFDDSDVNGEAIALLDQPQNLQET

The first assay covers variants of B1. Particulars: with tki1_arath TKI1, Q8LJT8.
Turning to K438E, the “effect of a mutation on the interaction” value is listed as “disrupting interaction”.

In a further assay the parent is B2. Particulars: with asf1b_arath ASF1B.
Turning to K438E, the “effect of a mutation on the interaction” value was “disrupting interaction”.
